Results reported in US20140057253, “METHOD TO PREDICT THE PATTERN OF LOCOMOTION IN HORSES” (CAPILET GENETICS AB, published 2014).

How the values were obtained:
[1] = biological target: DMRT3 wild-type (Equus caballus, UniProt F6W2R2 SEQ:1-474); experiment: EMSA; 150x cold competitor used; on ice 20 min then room temperature 30 min; conditions: tags: myc; label: 32P (Klenow fill-in with alpha-32P-dCTP)
Experimental: (§1) The oligonucleotide 5′-ggatcc[…]-3′ and its complementary sequence were annealed in 10 mM Tris pH 7.5, 1 mM EDTA, 50 mM KCl by firstly heating to 95° C. for 2 min and thereafter cooled to 25° C. (2 min/degree). The duplex was labelled with Klenow DNA polymerase and [α-32P]-dCTP and purified using a Bio-Rad Micro Bio-Spin 30 column. DMRT3 wild type and mutant protein were produced by in vitro-translation using a TNT Quick Coupled Transcription/Translation System (Promega). EMSA was performed as described by Culbertson & Leeds, 2003 (Looking at mRNA decay pathways through the window of molecular evolution. Curr. Opin. Genet. Dev. 13, 207-214) with the following modifications. No plasmid DNA was added and 1.0 μl in vitro-translated protein and 150× cold competitor were used. The reaction mixture was incubated on ice for 20 min before adding the radioactive oligo and thereafter incubated at room temperature for 30 min. Gels were run at 150 V in room temperature. […] It may therefore be a dominant negative form with normal DNA-binding but defective interaction with other proteins. This would be consistent with the clear phenotypic effects observed in heterozygotes. However, the mutation is not fully dominant as CA heterozygotes and AA homozygotes show distinct phenotypic differences.

[2] = biological target: DMRT3 Ser301STOP mutant (truncated, 300 aa) (Equus caballus, UniProt J7FCF0 SEQ:1-300); experiment: EMSA; 150x cold competitor used; on ice 20 min then room temperature 30 min; truncation retains DNA binding; conditions: tags: myc; label: 32P (Klenow fill-in with alpha-32P-dCTP)
Experimental: as §1

Sequence of DMRT3 Ser301STOP mutant (truncated, 300 aa) (J7FCF0 other isoform, or with tags, fused parts or gaps mutant): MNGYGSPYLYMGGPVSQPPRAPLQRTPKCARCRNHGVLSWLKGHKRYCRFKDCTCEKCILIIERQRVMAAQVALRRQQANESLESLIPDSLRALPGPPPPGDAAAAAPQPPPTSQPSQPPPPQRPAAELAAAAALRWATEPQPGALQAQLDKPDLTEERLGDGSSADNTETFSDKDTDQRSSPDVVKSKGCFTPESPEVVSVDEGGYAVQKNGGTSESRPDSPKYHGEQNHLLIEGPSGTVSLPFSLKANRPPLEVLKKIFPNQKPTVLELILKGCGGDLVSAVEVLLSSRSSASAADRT
Sequence of DMRT3 wild-type (F6W2R2 whole entry A151D): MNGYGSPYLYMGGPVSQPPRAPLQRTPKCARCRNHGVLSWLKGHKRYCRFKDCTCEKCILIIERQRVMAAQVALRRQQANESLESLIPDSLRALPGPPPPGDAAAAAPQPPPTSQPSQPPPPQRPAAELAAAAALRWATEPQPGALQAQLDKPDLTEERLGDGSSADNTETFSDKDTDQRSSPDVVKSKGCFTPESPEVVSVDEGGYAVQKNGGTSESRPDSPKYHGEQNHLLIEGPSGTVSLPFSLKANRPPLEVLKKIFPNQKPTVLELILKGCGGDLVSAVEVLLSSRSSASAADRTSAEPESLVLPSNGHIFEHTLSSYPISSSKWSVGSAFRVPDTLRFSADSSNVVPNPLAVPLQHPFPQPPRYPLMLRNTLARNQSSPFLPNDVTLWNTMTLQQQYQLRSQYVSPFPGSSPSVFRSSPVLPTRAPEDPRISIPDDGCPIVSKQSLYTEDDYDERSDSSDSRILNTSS

B1: DMRT-binding motif oligonucleotide (dsDNA)
DNA 1: GGATCCTCGAGAACAATGTAACAATTTCGCCC
DNA 2: GGGCGAAATTGTTACATTGTTCTCGAGGATCC
Does B1 bind [1]?
Result: binds

Does B1 bind [2]?
Result: binds
